The text below walks through data of publication PMC3180432.

pKd: −log10 of the molar value.

Test [1] deals with B7.1-Fc (mouse) (UniProt Q00609). Description: SPR; BIAcore 2000, CM5 chip, ligand immobilised by amine coupling, analyte protein injected at different molarities at 10 uL/min, HBS (0.01 M Hepes pH 7.4, 0.15 M NaCl, 0.005% P20), 25°C. A general note: In SPR one partner is held on a chip, and binding of the other changes the refractive index at the surface.
Test [2] has as its target B7-H1-Fc (mouse) (UniProt Q9EP73). The description is as above.

“B7-H1-Fc (from UniProt Q9EP73 19-239) (Fc fusion)”: the negative logarithm of the Kd (pKd) (in general, the Kd on a negative log10 scale, so that one unit is a factor of ten) in test [1] was 5.97. With “B7.1-Fc (from UniProt Q00609 38-246) (Fc fusion)”, in test [2], the pKd is 6.42. For “PD-1-Fc (from UniProt Q02242 25-169) (Fc fusion)”, the pKd in test [2] was 6.09.
